According to paper PMC12597760:
pKd: −log10 of the molar value. Like-named read-outs stand apart in the source and are kept apart here.

Legend:
TGF-β2 [1] = target: TGF-β2
TGF-β1 [2] = target: TGF-β1
Synagis = experiment: SPR
Synagis-T22d35 = Synagis-T22d35 (UniProt P37173); experiment: SPR
TGF-β1 [3] = target: TGF-β1; remark: listed apart in the source
Target sequence in this assay (P01137 279-390): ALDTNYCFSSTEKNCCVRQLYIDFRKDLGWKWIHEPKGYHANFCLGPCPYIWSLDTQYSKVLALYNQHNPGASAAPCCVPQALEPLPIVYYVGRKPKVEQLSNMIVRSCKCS

TGF-β1 [4] = target: TGF-β1; remark: listed apart in the source
Target sequence in this assay (P01137 279-390): as above

TGF-β2 [5] = target: TGF-β2; remark: listed apart in the source
Target sequence in this assay (P61812 303-414): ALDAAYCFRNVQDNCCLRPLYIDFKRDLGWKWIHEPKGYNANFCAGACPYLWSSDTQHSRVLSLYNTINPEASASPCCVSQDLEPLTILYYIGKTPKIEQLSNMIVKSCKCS

Sequence of RSV-F (P03420 26-574): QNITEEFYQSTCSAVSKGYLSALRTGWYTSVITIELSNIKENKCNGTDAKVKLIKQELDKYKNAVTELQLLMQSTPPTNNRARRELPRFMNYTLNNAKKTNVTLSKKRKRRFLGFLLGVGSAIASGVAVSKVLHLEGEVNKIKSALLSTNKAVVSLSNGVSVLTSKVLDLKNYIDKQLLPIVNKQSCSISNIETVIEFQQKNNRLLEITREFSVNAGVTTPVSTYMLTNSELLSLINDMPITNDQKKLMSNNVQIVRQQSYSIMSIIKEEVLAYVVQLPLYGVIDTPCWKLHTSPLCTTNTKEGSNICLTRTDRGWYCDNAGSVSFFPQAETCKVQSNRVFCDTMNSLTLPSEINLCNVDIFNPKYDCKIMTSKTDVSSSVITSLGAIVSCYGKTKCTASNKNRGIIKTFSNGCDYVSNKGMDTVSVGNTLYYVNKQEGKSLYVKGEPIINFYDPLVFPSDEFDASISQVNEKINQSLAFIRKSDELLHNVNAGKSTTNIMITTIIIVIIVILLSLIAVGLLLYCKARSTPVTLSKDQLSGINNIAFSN
Sequence of Synagis (heavy, as listed by the source, chain 1 of 2): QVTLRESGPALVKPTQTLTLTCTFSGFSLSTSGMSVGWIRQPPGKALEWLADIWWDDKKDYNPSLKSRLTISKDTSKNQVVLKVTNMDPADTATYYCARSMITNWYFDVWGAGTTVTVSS
Sequence of Synagis (light, as listed by the source, chain 2 of 2): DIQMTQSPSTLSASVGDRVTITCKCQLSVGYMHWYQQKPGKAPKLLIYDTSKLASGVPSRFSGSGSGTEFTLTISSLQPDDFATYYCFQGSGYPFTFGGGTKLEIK
Sequence of T22d35 (single-chain fusion of two TGF-β type II receptor ectodomains) (P37173 other isoform, or with tags, fused parts or gaps): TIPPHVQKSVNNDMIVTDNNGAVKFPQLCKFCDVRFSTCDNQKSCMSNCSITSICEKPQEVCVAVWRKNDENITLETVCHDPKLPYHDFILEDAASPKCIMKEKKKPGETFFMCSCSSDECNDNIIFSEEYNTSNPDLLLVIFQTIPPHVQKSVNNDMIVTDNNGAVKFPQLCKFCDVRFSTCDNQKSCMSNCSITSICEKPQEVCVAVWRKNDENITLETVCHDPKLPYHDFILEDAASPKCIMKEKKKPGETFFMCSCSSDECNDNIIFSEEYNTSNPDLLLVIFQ
Sequence of T22d35-hIgG2Fc(CC)ΔK (P37173 other isoform, or with tags, fused parts or gaps mutant): as the sequence (P37173 other isoform, or with tags, fused parts or gaps) above
Sequence of Avastin-T22d35 (P37173 whole entry, looked up): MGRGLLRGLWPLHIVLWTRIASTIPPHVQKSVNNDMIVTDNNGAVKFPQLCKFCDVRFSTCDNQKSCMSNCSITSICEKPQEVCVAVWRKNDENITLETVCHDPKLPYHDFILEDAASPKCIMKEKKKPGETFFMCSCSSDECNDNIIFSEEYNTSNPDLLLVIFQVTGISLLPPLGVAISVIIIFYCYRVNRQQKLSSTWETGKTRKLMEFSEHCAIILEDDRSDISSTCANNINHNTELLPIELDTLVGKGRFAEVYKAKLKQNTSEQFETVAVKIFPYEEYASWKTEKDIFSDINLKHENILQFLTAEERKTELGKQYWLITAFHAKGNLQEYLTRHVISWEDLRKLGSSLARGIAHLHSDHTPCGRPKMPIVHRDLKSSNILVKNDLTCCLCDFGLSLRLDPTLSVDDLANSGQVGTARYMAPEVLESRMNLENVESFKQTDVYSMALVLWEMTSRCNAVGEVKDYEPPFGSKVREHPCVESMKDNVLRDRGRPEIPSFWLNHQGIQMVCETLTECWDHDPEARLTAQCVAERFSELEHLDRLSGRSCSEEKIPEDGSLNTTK
Sequence of hIgG2Fc(CC)ΔK-T22d35 (P37173 other isoform, or with tags, fused parts or gaps mutant): as the sequence (P37173 other isoform, or with tags, fused parts or gaps) above

## Avastin-T22d35 (from UniProt P37173 23-166; P37173 23-166) (antibody)
TGF-β3
  IC50 (nM) of neutralization of TGF-β3 (10 pM), A549 IL-11 release assay: 0.00276 nM
TGF-β2 [1]
  IC50 (nM) of neutralization of TGF-β2 (10 pM), A549 IL-11 release assay: 2.99 nM

## Cetuximab-T2m (from UniProt P37173 23-166) (antibody)
TGF-β3
  IC50 (nM) of neutralization of TGF-β3 (10 pM), A549 IL-11 release assay: 0.0332 nM

## Cetuximab-T22d35 (from UniProt P37173 23-166; P37173 23-166) (antibody)
TGF-β3
  IC50 (nM) of neutralization of TGF-β3 (10 pM), A549 IL-11 release assay: 0.00428 nM
TGF-β2 [1]
  IC50 (nM) of neutralization of TGF-β2 (10 pM), A549 IL-11 release assay: 3.33 nM

## FC5VHH-Fc-T2m (from UniProt P37173 23-166) (Fc fusion)
TGF-β1 [2]
  IC50 (nM) of neutralization of TGF-β1 (10 pM), A549 IL-11 release assay: 0.00569 nM

## FC5VHH-Fc-T22d35 (from UniProt P37173 23-166; P37173 23-166) (Fc fusion)
TGF-β1 [2]
  IC50 (nM) of neutralization of TGF-β1 (10 pM), A549 IL-11 release assay: 0.00235 nM

## Herceptin-T22d35 (from UniProt P37173 23-166; P37173 23-166) (antibody)
TGF-β3
  IC50 (nM) of neutralization of TGF-β3 (10 pM), A549 IL-11 release assay: 0.00249 nM
TGF-β2 [1]
  IC50 (nM) of neutralization of TGF-β2 (10 pM), A549 IL-11 release assay: 4.35 nM

## RSV-F (from UniProt P03420 26-574) (natural protein)
Synagis
  pKd: 8.18
  koff: 0.00168 s⁻¹
  kon: 25700 M⁻¹ s⁻¹
Synagis-T22d35
  pKd: 8.39
  koff: 0.00142 s⁻¹
  kon: 35500 M⁻¹ s⁻¹

## T22d35 (single-chain fusion of two TGF-β type II receptor ectodomains) (from UniProt P37173 23-166; P37173 23-166) (domain or fragment)
TGF-β1 [3]
  IC50 of neutralization of TGF-β1, A549 IL-11 release assay (Figure 2B): 0.5 nM
TGF-β1 [4]
  IC50 (nM) of neutralization of TGF-β1 (10 pM), A549 IL-11 release assay: 3.25 nM

## T22d35-hIgG2Fc(CC)ΔK (from UniProt P37173 23-166; P37173 23-166) (Fc fusion)
TGF-β2 [5]
  IC50 (nM) of neutralization of TGF-β2 (10 pM), A549 IL-11 release assay: 4.76 nM
TGF-β1 [4]
  IC50 (nM) of neutralization of TGF-β1 (10 pM), A549 IL-11 release assay: 0.00331 nM

## hIgG2Fc(CC)ΔK-T22d35 (from UniProt P37173 23-166; P37173 23-166) (Fc fusion)
TGF-β2 [5]
  IC50 (nM) of neutralization of TGF-β2 (10 pM), A549 IL-11 release assay: 1.41 nM
